We go through 138 variants from the RNAGym collection of RNA variant scans (doi:10.7554/elife.80360).

First the molecules themselves.
B1: Hairpin Ribozyme (parent)
chain: GUCCUCUUUCACGUGCGCGUGAAAGAGAGAAGUGAACCAGAGAAACACACGUUGUGGUAUAUUACCUGGUA

Variants of B1 are the subject of the data set. The data set is described as follows: self-cleavage, relative activity (ratio to wild type); higher = more cleavage; co-transcriptional.
For the variant A64C A71U, the self-cleavage was 0.243. Under U62G U70G stands 0.352; under U62G U70C, 0.18; under A61C C65U, 0.148.

Turning to U62A C65G, the self-cleavage came out at 0.101. Take U62G G69C: the self-cleavage turned out to be 0.217. With U62G G69U the figure was 0.165. For U62G G69A, the self-cleavage stood at 0.0955. With A59U A71U the figure was 0.252. On to A59U A71G, for which the self-cleavage stood at 0.156.

In the case of C66A U70A, the self-cleavage came out at 0.279. Under A59U U67C stands 0.11; under A59G A61C, 0.39. With A64G C66A, the self-cleavage turned out to be 0.211. Under A64G C66U stands 0.109.

Consider A61U U62A, for which the self-cleavage was 0.139. Under A61G U63A stands 0.144.

For A61G U63C, the self-cleavage worked out at 0.253. Under A61G U63G stands 0.0586. On to U63G A71G, for which the self-cleavage came out at 0.226.

Take U63G A71C: the self-cleavage was determined as 0.565. With U58G A64G the figure was 0.341; with U62C A64G, 0.18; with A61G U67C, 0.113.

With A61G U67G, the self-cleavage was 0.157.

U62A U63G: the self-cleavage stood at 0.112. With U62A U63A, the self-cleavage was 0.12. Under U62A U63C stands 0.113. With A61C A71C the figure was 0.285. Consider A61C A71U, for which the self-cleavage is 0.164. With C66A U67A, the self-cleavage was 0.234. Under U63A U67A stands 0.208. Under U63A U67C stands 0.14; under U63A U67G, 0.118. Under A59U U63G stands 0.218; under A59U U63A, 0.206. C65A U67C: the self-cleavage was determined as 0.228.

In the case of C65A U67A, the self-cleavage was 0.141. With U58G U67G the figure was 0.173; with U67C U70G, 0.269. With U67C U70C, the self-cleavage came out at 0.279.

Regarding U67C U70A, the self-cleavage is 0.229. With C65U A71G the figure was 0.467.

Take C65U A71C: the self-cleavage amounted to 0.774.

For the variant G69U U70G, the self-cleavage worked out at 0.299. Under A59C U60C stands 0.167; under A59G A71U, 0.106. Under A59G A71G stands 0.0933; under U62G C66A, 0.207. Take U60G U70C: the self-cleavage came out at 0.372. Under U60G U70A stands 0.572; under A64U U70C, 0.0932. With A61G C66U the figure was 0.277; with A61U A71G, 0.275. As for A61U A71C, the self-cleavage is 0.468. Take U63A A71U: the self-cleavage is 0.182. Take U63A A71G: the self-cleavage amounted to 0.221. Under U67G G68U stands 0.192; under U63G U70A, 0.0931; under G68C A71U, 0.126. As to A59U C65G, the self-cleavage amounted to 0.218. Turning to A59C U70G, the self-cleavage is 0.141. With A59C U70C the figure was 0.151; with A61G A64G, 0.141; with U58G C65U, 0.412. Under U58G C65A stands 0.816; under G68A G69U, 0.172; under C65G U67A, 0.0982. With U67A A71G, the self-cleavage was 0.196.

With U67A A71U, the self-cleavage stood at 0.194.

For the variant U58G U63G, the self-cleavage was 0.104. Consider C66G G69A, for which the self-cleavage was determined as 0.185. As for A59G A64G, the self-cleavage came to 0.176. Under A59G A64C stands 0.273; under U63C G68U, 0.351; under C66U U70G, 0.297. Consider U60C U70A, for which the self-cleavage came out at 1.29.

Consider U60C A61U, for which the self-cleavage was determined as 0.296.

Turning to A64U G69U, the self-cleavage stood at 0.281. Take G68U A71U: the self-cleavage was 0.234. Under U63C C65G stands 0.117; under A61G A71U, 0.393; under G68C G69U, 0.17. With U70G A71U, the self-cleavage stood at 1.26. As for U70G A71C, the self-cleavage is 1.74. Under U60A G69U stands 0.129; under U60A G69A, 0.183. With U60A G69C the figure was 0.336; with A64C U70A, 0.4; with A59C C66A, 0.0564. Under C65G U70A stands 0.197; under A64C G69U, 0.234. Take A64C G69A: the self-cleavage worked out at 0.251. As to A59U U62G, the self-cleavage stood at 0.262. With A59U U62C the figure was 0.185.

A59U U62A: the self-cleavage was found to be 0.326.

As to G68A A71C, the self-cleavage came to 0.348.

Take U67C G69U: the self-cleavage worked out at 0.147.

On to C66G G68A, for which the self-cleavage stood at 0.123. Under U60C C65A stands 1.34; under A64G G69A, 0.121; under A64G G69C, 0.142. Under U58G G69U stands 0.113. Under A64U C66U stands 0.11; under A61U C65A, 0.107; under U60C U63A, 0.262.

In the case of U60A U70A, the self-cleavage was found to be 0.61.

With U60A U70C, the self-cleavage worked out at 0.626. Under A61G G68U stands 0.163.

Take A61G G68A: the self-cleavage worked out at 0.275. Under A64U G68U stands 0.23; under U60G G68A, 0.201; under A59G G69A, 0.125.

For the variant A59G G69U, the self-cleavage is 0.15. For the variant U60G A71C, the self-cleavage was 1.01. With U60G A71G the figure was 0.672; with A59U A64G, 0.139. In the case of A59U A64C, the self-cleavage turned out to be 0.149. With A64G C65G the figure was 0.101. Turning to A64G C65U, the self-cleavage is 0.215. With A64G C65A the figure was 0.139; with C65G G69C, 0.219. Regarding C65G G69U, the self-cleavage was 0.156. In the case of A61U A64C, the self-cleavage is 0.197. With A61U A64G the figure was 0.121; with U60A U63A, 0.164.

Consider U60A U63C, for which the self-cleavage is 0.151. On to A59C A61G, for which the self-cleavage was determined as 0.207. In the case of A59C A61C, the self-cleavage was 0.0887.

Take A59G C65U: the self-cleavage is 0.18. Turning to U60G G69U, the self-cleavage is 0.101. Consider A64U U67C, for which the self-cleavage was 0.213. Under A61C C66G stands 0.101. Regarding A61C C66A, the self-cleavage stood at 0.0988. With A61C C66U, the self-cleavage was 0.145. With U63G C66G the figure was 0.125; with A64U C65U, 0.194; with A64U C65A, 0.187.
